# From the supplement of paper PMC7877785
# ± gives the uncertainty stated by the source.
# Experiment: self-splicing fitness, log relative to wild type (ln ratio); higher = more splicing; Tetrahymena group I intron in knt gene, E. coli kanamycin selection, DiMSum; sequences stand for … in CUCUCU…GGAGGGAAAAGUUAUCAGGCAUGCACCUGGUAGCUAGUCUUUAAACCAAUAGAUUGCAUCGGUUUAAAAGGCAAGACCGUCAAAUUGCGGGAAAGGGGUCAACAGCCGUUCAGUACCAAGUCUCAGGGGAAACUUUGAGAUGGCCUUGCAAAGGGUAUGGUAAUAAGCUGACGGACAUGGUCCUAACCACGCAGCCAAGUCCUAAGUCAACAGAUCUUCUGUUGAUAUGGAUGCAGUUCACAGACUAAAUGUCGGUCGGGGAAGAUGUAUUCUUCUCAUAAGAUAUAGUCGGACCUCUCCUUAAUGGGAGCUAGCGGAUGAAGUGAUGCAACACUGGAGCCGCUGGGAACUAAUUUGUAUGCGAAAGUAUAUUGAUUAGUUUUGGAGUACUCGUGGUCG
# Summary of the method: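 DiMSum derived fitness as the error-weighted combination of fold changes across replicates, kanamycin versus no kanamycin, normalised to wild type. E. coli BL21(DE3) held the library, which randomised all eight P1ex-region intron nucleotides within the knt kanamycin-resistance gene on pET-22b(+). Six replicate transformations grew overnight at 37°C or 30°C on LB agar with or without 25 μg/mL kanamycin, also containing 100 μg/mL carbenicillin, 50 μM IPTG and 0.2% rhamnose, and pooled colonies were amplicon-sequenced on an Illumina HiSeq 2500.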
Sequence,self-splicing fitness (ln) (30 °C),self-splicing fitness (ln) (37 °C)
UACGAGCAAUAUUACGAAAC,-2.05 ± 0.48,–
AUUUAGCAAUAUUACGGCAU,-0.0305 ± 0.11,-0.15 ± 0.18
CUGUAGCAAUAUUACGCAAC,–,-2.99 ± 0.47
AGAAAGCAAUAUUACGACUA,-0.244 ± 0.12,-0.42 ± 0.12
UGCUAGCAAUAUUACGAAAG,-2.06 ± 0.21,-0.114 ± 0.19
UUAUAGCAAUAUUACGCUCA,-0.877 ± 0.38,-1.09 ± 0.42
GCGCAGCAAUAUUACGUUGU,-3.03 ± 0.13,-1.24 ± 0.12
CAUCAGCAAUAUUACGCACG,-0.443 ± 0.086,0.189 ± 0.11
AUUGAGCAAUAUUACGGUCG,-2.92 ± 0.36,-2.52 ± 0.45
UGAAAGCAAUAUUACGGAAC,-2.58 ± 0.22,-0.53 ± 0.25
AGGUAGCAAUAUUACGAUCU,-0.913 ± 0.016,-0.426 ± 0.034
GGUUAGCAAUAUUACGUUGC,-2.41 ± 0.22,-1.12 ± 0.42
AAGGAGCAAUAUUACGAUAA,-3.46 ± 0.25,-1.94 ± 0.18
UGUAAGCAAUAUUACGACCG,0.431 ± 0.12,0.133 ± 0.18
GCGUAGCAAUAUUACGUGCC,-3.08 ± 0.25,-2.83 ± 0.44
ACGAAGCAAUAUUACGGUCG,-0.954 ± 0.066,-0.311 ± 0.082
CAUAAGCAAUAUUACGGAAU,-4.25 ± 0.23,-2.43 ± 0.18
GUCGAGCAAUAUUACGUUUC,-2.08 ± 0.21,-1.88 ± 0.2
UUGAAGCAAUAUUACGUUUA,-1.08 ± 0.062,-0.682 ± 0.084
UCAAAGCAAUAUUACGGAUA,-3.12 ± 0.18,-1.94 ± 0.14
GAAGAGCAAUAUUACGUGGG,-3.22 ± 0.16,-3.05 ± 0.2
ACUGAGCAAUAUUACGAAGC,–,-2.04 ± 0.46
UACCAGCAAUAUUACGUCUC,-2.4 ± 0.14,-2.26 ± 0.18
AAGCAGCAAUAUUACGGGGU,-3.21 ± 0.13,-2.56 ± 0.16
GAGUAGCAAUAUUACGUGUA,-2.97 ± 0.11,-1.35 ± 0.1
CCAGAGCAAUAUUACGCGUU,-4.06 ± 0.23,-2.65 ± 0.18

Sequence,self-splicing fitness (ln) (30 °C),self-splicing fitness (ln) (37 °C)
GACCAGCAAUAUUACGGAAA,-0.538 ± 0.086,0.437 ± 0.096
AGGCAGCAAUAUUACGUGUU,-1.85 ± 0.063,-1.38 ± 0.088
UGUCAGCAAUAUUACGCAGG,-2.52 ± 0.2,-3.19 ± 0.26
AACCAGCAAUAUUACGCUGG,-2.8 ± 0.14,-2.25 ± 0.19
GGGUAGCAAUAUUACGGUAU,-2.11 ± 0.13,-0.598 ± 0.14
CGACAGCAAUAUUACGGCGA,-1.65 ± 0.14,-0.523 ± 0.13
AGUGAGCAAUAUUACGUAGG,-4.29 ± 0.46,–
GCGUAGCAAUAUUACGGAGC,-4.23 ± 0.28,-3.03 ± 0.35
ACAAAGCAAUAUUACGAUUG,-2.14 ± 0.069,-1.55 ± 0.092
GUUCAGCAAUAUUACGGUGC,-1.34 ± 0.14,-0.357 ± 0.12
UACGAGCAAUAUUACGCUCA,-1.46 ± 0.15,-0.952 ± 0.2
GAAAAGCAAUAUUACGUCCG,-1.72 ± 0.12,-0.481 ± 0.14
AGGGAGCAAUAUUACGACUC,-1.2 ± 0.48,-1.92 ± 0.48
GGUUAGCAAUAUUACGAAAC,–,-1.68 ± 0.41
UUGAAGCAAUAUUACGCUGU,-1.96 ± 0.14,-1.84 ± 0.16
AUGCAGCAAUAUUACGACAA,-0.348 ± 0.075,-0.366 ± 0.093
CGGAAGCAAUAUUACGUGAU,-3.44 ± 0.12,-1.96 ± 0.12
UUCAAGCAAUAUUACGAAGA,-2.03 ± 0.19,-1.26 ± 0.19
UUUGAGCAAUAUUACGGGUG,-4.1 ± 0.3,-2.22 ± 0.21
CUCCAGCAAUAUUACGGGCU,-3.21 ± 0.13,-2.49 ± 0.18
AUUGAGCAAUAUUACGCCAC,-1.44 ± 0.42,–
CCACAGCAAUAUUACGAUGU,-4.02 ± 0.24,-1.89 ± 0.15
CUUUAGCAAUAUUACGGAUC,-3.81 ± 0.35,-1.53 ± 0.18
GAAUAGCAAUAUUACGACGG,-3.32 ± 0.36,-1.1 ± 0.19
AUGAAGCAAUAUUACGAUUU,0.114 ± 0.062,0.345 ± 0.071
AUUGAGCAAUAUUACGUAAA,-1.7 ± 0.15,-2.91 ± 0.34

Sequence,self-splicing fitness (ln) (30 °C),self-splicing fitness (ln) (37 °C)
GAAAAGCAAUAUUACGGUCG,-0.446 ± 0.065,-0.0366 ± 0.1
GCGAAGCAAUAUUACGUUUA,-2.57 ± 0.14,-1.32 ± 0.11
CAGGAGCAAUAUUACGGUCC,-2.86 ± 0.24,-2.86 ± 0.38
AAGCAGCAAUAUUACGGCGG,-1.13 ± 0.12,-1.01 ± 0.14
UAAAAGCAAUAUUACGGAAC,-3.24 ± 0.27,-2.68 ± 0.4
CCCGAGCAAUAUUACGUACG,-3.24 ± 0.18,-2.83 ± 0.24
AGUUAGCAAUAUUACGAACC,-1 ± 0.15,-0.401 ± 0.17
AUGGAGCAAUAUUACGCGUC,-4.02 ± 0.18,-2.79 ± 0.15
GAUGAGCAAUAUUACGGUUA,-2.77 ± 0.28,-2.47 ± 0.25
GCACAGCAAUAUUACGGGCU,-3.81 ± 0.24,-1.77 ± 0.12
UGGGAGCAAUAUUACGUGAC,–,-2.53 ± 0.44
CCAGAGCAAUAUUACGUUCA,-2.45 ± 0.32,-2.32 ± 0.34
AGUUAGCAAUAUUACGGGGU,-3.76 ± 0.46,-2.61 ± 0.33
AGUAAGCAAUAUUACGCUCG,-0.783 ± 0.17,-0.584 ± 0.21
AUAAAGCAAUAUUACGCAAA,-1.01 ± 0.1,-1.03 ± 0.14
ACGUAGCAAUAUUACGUAAU,-2.35 ± 0.13,-2.34 ± 0.15
GAAUAGCAAUAUUACGGUAC,-1.1 ± 0.13,-0.802 ± 0.2
AGCUAGCAAUAUUACGCACA,-1.51 ± 0.21,-0.817 ± 0.2
UUCUAGCAAUAUUACGUCUG,-2.22 ± 0.12,-2.49 ± 0.21
GAUUAGCAAUAUUACGAUAU,-1.19 ± 0.11,-0.869 ± 0.13
CCCUAGCAAUAUUACGUGAA,-2.8 ± 0.16,-2.62 ± 0.2
CAGAAGCAAUAUUACGCCGA,-3.49 ± 0.41,-2.75 ± 0.33
AAACAGCAAUAUUACGCUAA,-1.6 ± 0.084,-1.58 ± 0.1
AUUAAGCAAUAUUACGCCUA,-0.154 ± 0.086,0.195 ± 0.11
AGAAAGCAAUAUUACGCUGG,-3.7 ± 0.36,-2.77 ± 0.31
